Square brackets hold non-standard residues; d marks the D form. Primed or numbered codes have the meaning given here. Ends that are not written are not given here. pY = N[C@@H](Cc1ccc(OP(=O)(O)O)cc1)C(=O)O; Phe(4-Cl) = N[C@@H](Cc1ccc(Cl)cc1)C(=O)O; Phe(3-F) = N[C@@H](Cc1cccc(F)c1)C(=O)O; Pzc(2) = piperazine-2-carboxylic acid; Ala(Pip) = (4-piperidin-1-yl)alanine; Phe(2-F) = N[C@@H](Cc1ccccc1F)C(=O)O; Arg(Me) = CNC(=N)NCCC[C@H](N)C(=O)O; Hyp = O=C(O)[C@@H]1C[C@@H](O)CN1; His(3Me) = 3-methylhistidine; Orn = NCCC[C@H](N)C(=O)O; Aib = CC(C)(N)C(=O)O; Ahx = NCCCCCC(=O)O; azaGly = NNC(=O)O
B1: des(1)-Ac-[D-Tyr2,Trp3,Thr5,Phe(2F)6,AzaGly7,Arg(Me)9,Trp10]MS10 (peptide)
peptide: Ac-[dY]WNT[Phe(2-F)][azaGly]L[Arg(Me)]W-NH2
SMILES: CNC(=N)NCCC[C@H](NC(=O)[C@H](CC(C)C)NC(=O)NNC(=O)[C@H](Cc1ccccc1F)NC(=O)[C@@H](NC(=O)[C@H](CC(N)=O)NC(=O)[C@H](Cc1c[nH]c2ccccc12)NC(=O)[C@@H](Cc1ccc(O)cc1)NC(C)=O)[C@@H](C)O)C(=O)N[C@@H](Cc1c[nH]c2ccccc12)C(N)=O
B2: des(1)-Ac-[D-Tyr2,Aib3,Thr5,Phe(4Cl)6,AzaGly7,Arg(Me)9,Trp10]MS10 (peptide)
peptide: Ac-[dY][Aib]NT[Phe(4-Cl)][azaGly]L[Arg(Me)]W-NH2
SMILES: CNC(=N)NCCC[C@H](NC(=O)[C@H](CC(C)C)NC(=O)NNC(=O)[C@H](Cc1ccc(Cl)cc1)NC(=O)[C@@H](NC(=O)[C@H](CC(N)=O)NC(=O)C(C)(C)NC(=O)[C@@H](Cc1ccc(O)cc1)NC(C)=O)[C@@H](C)O)C(=O)N[C@@H](Cc1c[nH]c2ccccc12)C(N)=O
B3: des(1)-Ac-[D-Tyr2,Lys3,Thr5,Phe(4Cl)6,AzaGly7,Arg(Me)9,Trp10]MS10 (peptide)
peptide: Ac-[dY]KNT[Phe(4-Cl)][azaGly]L[Arg(Me)]W-NH2
SMILES: CNC(=N)NCCC[C@H](NC(=O)[C@H](CC(C)C)NC(=O)NNC(=O)[C@H](Cc1ccc(Cl)cc1)NC(=O)[C@@H](NC(=O)[C@H](CC(N)=O)NC(=O)[C@H](CCCCN)NC(=O)[C@@H](Cc1ccc(O)cc1)NC(C)=O)[C@@H](C)O)C(=O)N[C@@H](Cc1c[nH]c2ccccc12)C(N)=O
B4: des(1)-Ac-[D-Tyr2,Lys3,Thr5,Phe(3F)6,AzaGly7,Arg(Me)9,Trp10]MS10 (peptide)
peptide: Ac-[dY]KNT[Phe(3-F)][azaGly]L[Arg(Me)]W-NH2
SMILES: CNC(=N)NCCC[C@H](NC(=O)[C@H](CC(C)C)NC(=O)NNC(=O)[C@H](Cc1cccc(F)c1)NC(=O)[C@@H](NC(=O)[C@H](CC(N)=O)NC(=O)[C@H](CCCCN)NC(=O)[C@@H](Cc1ccc(O)cc1)NC(C)=O)[C@@H](C)O)C(=O)N[C@@H](Cc1c[nH]c2ccccc12)C(N)=O
B5: des(1-2)-[Acp3,Thr5,AzaGly7,Arg(Me)9,Trp10]MS10 (peptide)
peptide: [Ahx]NTF[azaGly]L[Arg(Me)]W-NH2
modifications: N-terminus assumed
SMILES: CNC(=N)NCCC[C@H](NC(=O)[C@H](CC(C)C)NC(=O)NNC(=O)[C@H](Cc1ccccc1)NC(=O)[C@@H](NC(=O)[C@H](CC(N)=O)NC(=O)CCCCCN)[C@@H](C)O)C(=O)N[C@@H](Cc1c[nH]c2ccccc12)C(N)=O
B6: des(1)-Ac-[D-Tyr2,His(3Me)3,Thr5,AzaGly7,Arg(Me)9,Trp10]MS10 (peptide)
peptide: Ac-[dY][His(3Me)]NTF[azaGly]L[Arg(Me)]W-NH2
B7: des(1)-Ac-[D-Tyr2,Glu3,Thr5,Phe(4Cl)6,AzaGly7,Arg(Me)9,Trp10]MS10 (peptide)
peptide: Ac-[dY]ENT[Phe(4-Cl)][azaGly]L[Arg(Me)]W-NH2
SMILES: CNC(=N)NCCC[C@H](NC(=O)[C@H](CC(C)C)NC(=O)NNC(=O)[C@H](Cc1ccc(Cl)cc1)NC(=O)[C@@H](NC(=O)[C@H](CC(N)=O)NC(=O)[C@H](CCC(=O)O)NC(=O)[C@@H](Cc1ccc(O)cc1)NC(C)=O)[C@@H](C)O)C(=O)N[C@@H](Cc1c[nH]c2ccccc12)C(N)=O
B8: des(1)-Ac-[D-Tyr2,Tyr(PO3H2)3,Thr5,AzaGly7,Arg(Me)9,Trp10]MS10 (peptide)
peptide: Ac-[dY][pY]NTF[azaGly]L[Arg(Me)]W-NH2
SMILES: CNC(=N)NCCC[C@H](NC(=O)[C@H](CC(C)C)NC(=O)NNC(=O)[C@H](Cc1ccccc1)NC(=O)[C@@H](NC(=O)[C@H](CC(N)=O)NC(=O)[C@H](Cc1ccc(OP(=O)(O)O)cc1)NC(=O)[C@@H](Cc1ccc(O)cc1)NC(C)=O)[C@@H](C)O)C(=O)N[C@@H](Cc1c[nH]c2ccccc12)C(N)=O
B9: des(1)-Ac-[D-Tyr2,Hyp3,Thr5,Phe(4Cl)6,AzaGly7,Arg(Me)9,Trp10]MS10 (peptide)
peptide: Ac-[dY][Hyp]NT[Phe(4-Cl)][azaGly]L[Arg(Me)]W-NH2
SMILES: CNC(=N)NCCC[C@H](NC(=O)[C@H](CC(C)C)NC(=O)NNC(=O)[C@H](Cc1ccc(Cl)cc1)NC(=O)[C@@H](NC(=O)[C@H](CC(N)=O)NC(=O)[C@@H]1C[C@@H](O)CN1C(=O)[C@@H](Cc1ccc(O)cc1)NC(C)=O)[C@@H](C)O)C(=O)N[C@@H](Cc1c[nH]c2ccccc12)C(N)=O
B10: des(1)-Ac-[D-Tyr2,Hyp3,Thr5,Phe(2F)6,AzaGly7,Arg(Me)9,Trp10]MS10 (peptide)
peptide: Ac-[dY][Hyp]NT[Phe(2-F)][azaGly]L[Arg(Me)]W-NH2
SMILES: CNC(=N)NCCC[C@H](NC(=O)[C@H](CC(C)C)NC(=O)NNC(=O)[C@H](Cc1ccccc1F)NC(=O)[C@@H](NC(=O)[C@H](CC(N)=O)NC(=O)[C@@H]1C[C@@H](O)CN1C(=O)[C@@H](Cc1ccc(O)cc1)NC(C)=O)[C@@H](C)O)C(=O)N[C@@H](Cc1c[nH]c2ccccc12)C(N)=O
B11: des(1)-Ac-[D-Tyr2,Glu3,Thr5,Phe(3F)6,AzaGly7,Arg(Me)9,Trp10]MS10 (peptide)
peptide: Ac-[dY]ENT[Phe(3-F)][azaGly]L[Arg(Me)]W-NH2
SMILES: CNC(=N)NCCC[C@H](NC(=O)[C@H](CC(C)C)NC(=O)NNC(=O)[C@H](Cc1cccc(F)c1)NC(=O)[C@@H](NC(=O)[C@H](CC(N)=O)NC(=O)[C@H](CCC(=O)O)NC(=O)[C@@H](Cc1ccc(O)cc1)NC(C)=O)[C@@H](C)O)C(=O)N[C@@H](Cc1c[nH]c2ccccc12)C(N)=O
B12: des(1)-Ac-[D-Tyr2,Pzc(2)3,Thr5,AzaGly7,Arg(Me)9,Trp10]MS10 (peptide)
peptide: Ac-[dY][Pzc(2)]NTF[azaGly]L[Arg(Me)]W-NH2
B13: des(1)-Ac-[D-Tyr2,Thr3,Thr5,AzaGly7,Arg(Me)9,Trp10]MS10 (peptide)
peptide: Ac-[dY]TNTF[azaGly]L[Arg(Me)]W-NH2
SMILES: CNC(=N)NCCC[C@H](NC(=O)[C@H](CC(C)C)NC(=O)NNC(=O)[C@H](Cc1ccccc1)NC(=O)[C@@H](NC(=O)[C@H](CC(N)=O)NC(=O)[C@@H](NC(=O)[C@@H](Cc1ccc(O)cc1)NC(C)=O)[C@@H](C)O)[C@@H](C)O)C(=O)N[C@@H](Cc1c[nH]c2ccccc12)C(N)=O
B14: des(1)-Ac-[D-Tyr2,Trp3,Thr5,Phe(4Cl)6,AzaGly7,Arg(Me)9,Trp10]MS10 (peptide)
peptide: Ac-[dY]WNT[Phe(4-Cl)][azaGly]L[Arg(Me)]W-NH2
SMILES: CNC(=N)NCCC[C@H](NC(=O)[C@H](CC(C)C)NC(=O)NNC(=O)[C@H](Cc1ccc(Cl)cc1)NC(=O)[C@@H](NC(=O)[C@H](CC(N)=O)NC(=O)[C@H](Cc1c[nH]c2ccccc12)NC(=O)[C@@H](Cc1ccc(O)cc1)NC(C)=O)[C@@H](C)O)C(=O)N[C@@H](Cc1c[nH]c2ccccc12)C(N)=O
B15: des(1)-Ac-[D-Tyr2,Gly3,Thr5,Phe(4Cl)6,AzaGly7,Arg(Me)9,Trp10]MS10 (peptide)
peptide: Ac-[dY]GNT[Phe(4-Cl)][azaGly]L[Arg(Me)]W-NH2
SMILES: CNC(=N)NCCC[C@H](NC(=O)[C@H](CC(C)C)NC(=O)NNC(=O)[C@H](Cc1ccc(Cl)cc1)NC(=O)[C@@H](NC(=O)[C@H](CC(N)=O)NC(=O)CNC(=O)[C@@H](Cc1ccc(O)cc1)NC(C)=O)[C@@H](C)O)C(=O)N[C@@H](Cc1c[nH]c2ccccc12)C(N)=O
B16: des(1-2)-Ac-[Acp3,Thr5,AzaGly7,Arg(Me)9,Trp10]MS10 (peptide)
peptide: Ac-[Ahx]NTF[azaGly]L[Arg(Me)]W-NH2
SMILES: CNC(=N)NCCC[C@H](NC(=O)[C@H](CC(C)C)NC(=O)NNC(=O)[C@H](Cc1ccccc1)NC(=O)[C@@H](NC(=O)[C@H](CC(N)=O)NC(=O)CCCCCNC(C)=O)[C@@H](C)O)C(=O)N[C@@H](Cc1c[nH]c2ccccc12)C(N)=O
B17: des(1)-Ac-[D-Tyr2,Hyp3,Thr5,Phe(3F)6,AzaGly7,Arg(Me)9,Trp10]MS10 (peptide)
peptide: Ac-[dY][Hyp]NT[Phe(3-F)][azaGly]L[Arg(Me)]W-NH2
SMILES: CNC(=N)NCCC[C@H](NC(=O)[C@H](CC(C)C)NC(=O)NNC(=O)[C@H](Cc1cccc(F)c1)NC(=O)[C@@H](NC(=O)[C@H](CC(N)=O)NC(=O)[C@@H]1C[C@@H](O)CN1C(=O)[C@@H](Cc1ccc(O)cc1)NC(C)=O)[C@@H](C)O)C(=O)N[C@@H](Cc1c[nH]c2ccccc12)C(N)=O
B18: des(1)-Ac-[D-Tyr2,Trp3,Thr5,Phe(3F)6,AzaGly7,Arg(Me)9,Trp10]MS10 (peptide)
peptide: Ac-[dY]WNT[Phe(3-F)][azaGly]L[Arg(Me)]W-NH2
SMILES: CNC(=N)NCCC[C@H](NC(=O)[C@H](CC(C)C)NC(=O)NNC(=O)[C@H](Cc1cccc(F)c1)NC(=O)[C@@H](NC(=O)[C@H](CC(N)=O)NC(=O)[C@H](Cc1c[nH]c2ccccc12)NC(=O)[C@@H](Cc1ccc(O)cc1)NC(C)=O)[C@@H](C)O)C(=O)N[C@@H](Cc1c[nH]c2ccccc12)C(N)=O
B19: des(1)-Ac-[D-Tyr2,DL-Ala(Pip)3,Thr5,AzaGly7,Arg(Me)9,Trp10]MS10 (peptide)
peptide: Ac-[dY][Ala(Pip)]NTF[azaGly]L[Arg(Me)]W-NH2
modifications: also: position 2 DL, both configurations
B20: des(1)-Ac-[D-Tyr2,Orn3,Thr5,AzaGly7,Arg(Me)9,Trp10]MS10 (peptide)
peptide: Ac-[dY][Orn]NTF[azaGly]L[Arg(Me)]W-NH2
SMILES: CNC(=N)NCCC[C@H](NC(=O)[C@H](CC(C)C)NC(=O)NNC(=O)[C@H](Cc1ccccc1)NC(=O)[C@@H](NC(=O)[C@H](CC(N)=O)NC(=O)[C@H](CCCN)NC(=O)[C@@H](Cc1ccc(O)cc1)NC(C)=O)[C@@H](C)O)C(=O)N[C@@H](Cc1c[nH]c2ccccc12)C(N)=O

Target: human OT7T175 (metastin receptor) (human) (UniProt Q969F8)
Sequence (Q969F8 whole entry L364H): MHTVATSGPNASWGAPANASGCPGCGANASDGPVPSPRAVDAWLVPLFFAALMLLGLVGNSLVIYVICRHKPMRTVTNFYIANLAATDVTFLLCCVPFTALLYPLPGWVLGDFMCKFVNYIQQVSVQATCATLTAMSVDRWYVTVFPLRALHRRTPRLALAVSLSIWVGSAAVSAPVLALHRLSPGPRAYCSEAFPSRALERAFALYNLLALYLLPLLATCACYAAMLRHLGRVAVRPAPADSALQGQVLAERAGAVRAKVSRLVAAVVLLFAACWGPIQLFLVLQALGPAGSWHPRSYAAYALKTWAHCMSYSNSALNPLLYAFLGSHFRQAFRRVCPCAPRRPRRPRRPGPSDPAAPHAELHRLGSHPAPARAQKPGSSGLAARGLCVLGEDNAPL
Assay: cell-based or functional assay

Binder | intracellular Ca ion level-increasing activity [specific activity to Metastin (1-54)] (relative to Metastin (1-54))
B1 | 1.5
B2 | 2.6
B3 | 1.8
B4 | 2.4
B5 | 8.9
B6 | 1.1
B7 | 1.9
B8 | 1.3
B9 | 1.5
B10 | 6.4
B11 | 2.7
B12 | 1.7
B13 | 1.3
B14 | 0.6
B15 | 1.5
B16 | 3.7
B17 | 2.6
B18 | 0.2
B19 | 2
B20 | 1.9
